No end group written: not given here.
T1: PACAP-R3 (human, UniProt P41587 24-438)
T1 sequence (looked up): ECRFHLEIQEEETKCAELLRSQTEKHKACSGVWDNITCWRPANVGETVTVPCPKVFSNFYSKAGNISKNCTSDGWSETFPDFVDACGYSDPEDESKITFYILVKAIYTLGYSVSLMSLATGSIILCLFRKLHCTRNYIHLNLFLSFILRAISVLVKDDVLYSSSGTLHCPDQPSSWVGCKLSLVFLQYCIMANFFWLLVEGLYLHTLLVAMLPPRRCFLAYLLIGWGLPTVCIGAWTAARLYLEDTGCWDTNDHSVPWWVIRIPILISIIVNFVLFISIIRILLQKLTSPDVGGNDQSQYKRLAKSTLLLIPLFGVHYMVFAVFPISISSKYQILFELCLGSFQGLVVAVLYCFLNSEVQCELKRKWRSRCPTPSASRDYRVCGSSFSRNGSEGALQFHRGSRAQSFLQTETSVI


molecular target: T1, PACAP-R3; experiment: cell-based or functional assay

Going from HSDAVFTDNYTRLRKQMAFKKYLNSIKNKR [R3P99] to HSDAVFTDNYTRLRKQMAAKKYLNSIKNTR [R3P148], the “R3 EC50” value falls from 1 nM to 0.3 nM (3.3-fold).

HSDAVFTDNYTRLRKQMAAKKYLNSIWNKR [R3P131] and HSDAVFTDNYTRLRKQMAAKKYLNSIKNKE [R3P155] are within 1.5-fold of each other in “R3 EC50” value: 0.3 nM for the first, 0.4 nM for the second.

Going from HSDAVFTDNYTRLRKQMAAKKYLNSIKNQR [R3P145] to HSDAVFTDNYTRLRKQMAKKKYLNSIKNKR [R3P103], the “R3 EC50” value falls from 0.5 nM to 0.05 nM (10-fold).

Compared with HSDAVFTDNYTRLRKQMAAKKYLNSIYNKR [R3P132], HSDAVFTDNYTRLRKQMAHKKYLNSIKNKR [R3P101] is 5-fold higher in “R3 EC50” value: 0.2 nM for the first, 1 nM for the second.

First: HSDAVFTDNYTRLRKQMAAKKYLNSIGNKR [R3P120]
Second: HSDAVFTDNYTRLRKQMASKKYLNSIKNKR [R3P110]
The “R3 EC50” value of the first is 2.5-fold lower: 0.2 nM for the first, 0.5 nM for the second.

HSDAVFTDNYTRLRKQMAAKKYLNSIKNKD [R3P153] and HSDAVFTDNYTRLRKQMAAKKYLNSIKNIR [R3P140] are within 1.5-fold of each other in “R3 EC50” value: 0.2 nM for the first, 0.3 nM for the second.

Going from HSDAVFTDNYTRLRKQMAYKKYLNSIKNKR [R3P114] to HSDAVFTDNYTRLRKQMAIKKYLNSIKNKR [R3P102], the “R3 EC50” value rises from 2 nM to 60 nM (30-fold).

First: HSDAVFTDNYTRLRKQMALKKYLNSIKNKR [R3P104]
Second: HSDAVFTDNYTRLRKQMAPKKYLNSIKNKR [R3P107]
The “R3 EC50” value of the first is 1000-fold lower: 0.2 nM for the first, 200 nM for the second.

First: HSDAVFTDNYTRLRKQMARKKYLNSIKNKR [R3P109]
Second: HSDAVFTDNYTRLRKQMAGKKYLNSIKNKR [R3P100]
The “R3 EC50” value of the first is 33-fold higher: 10 nM for the first, 0.3 nM for the second.

Going from HSDAVFTDNYTRLRKQMAAKKYLNSIPNKR [R3P125] to HSDAVFTDNYTRLRKQMAAKKYLNSISNKR [R3P128], the “R3 EC50” value falls from 2 nM to 0.3 nM (6.7-fold).

First: HSDAVFTDNYTRLRKQMAAKKYLNSIQNKR [R3P126]
Second: HSDAVFTDNYTRLRKQMAAKKYLNSIKNPR [R3P144]
The “R3 EC50” value of the first is 3-fold lower: 1 nM for the first, 3 nM for the second.

Compared with HSDAVFTDNYTRLRKQMAAKKYLNSIFNKR [R3P119], HSDAVFTDNYTRLRKQMAAKKYLNSINNKR [R3P124] is 2.5-fold lower in “R3 EC50” value: 0.5 nM for the first, 0.2 nM for the second.

Going from HSDAVFTDNYTRLRKQMAAKKYLNSIVNKR [R3P130] to HSDAVFTDNYTRLRKQMAAKKYLNSIINKR [R3P122], the “R3 EC50” value falls from 1 nM to 0.2 nM (5-fold).

Compared with HSDAVFTDNYTRLRKQMAAKKYLNSICNKR [R3P116], HSDAVFTDNYTRLRKQMAAKKYLNSIANKR [R3P115] is 6-fold higher in “R3 EC50” value: 1 nM for the first, 6 nM for the second.

HSDAVFTDNYTRLRKQMAAKKYLNSIKNHR [R3P139] and HSDAVFTDNYTRLRKQMAAKKYLNSIKNVR [R3P149] are within 1.5-fold of each other in “R3 EC50” value: 0.4 nM for the first, 0.5 nM for the second.

First: HSDAVFTDNYTRLRKQMAAKKYLNSIKNRR [R3P146]
Second: HSDAVFTDNYTRLRKQMAAKKYLNSIHNKR [R3P121]
The “R3 EC50” value of the first is 3.3-fold lower: 0.3 nM for the first, 1 nM for the second.

First: HSDAVFTDNYTRLRKQMAWKKYLNSIKNKR [R3P113]
Second: HSDAVFTDNYTRLRKQMAAKKYLNSIRNKR [R3P127]
The “R3 EC50” value of the first is 1.7-fold lower: 0.3 nM for the first, 0.5 nM for the second.

Compared with HSDAVFTDNYTRLRKQMAMKKYLNSIKNKR [R3P105], HSDAVFTDNYTRLRKQMATKKYLNSIKNKR [R3P111] is 10-fold higher in “R3 EC50” value: 0.3 nM for the first, 3 nM for the second.

Compared with HSDAVFTDNYTRLRKQMAAKKYLNSIKNCR [R3P134], HSDAVFTDNYTRLRKQMAAKKYLNSIKNSR [R3P147] is 2-fold lower in “R3 EC50” value: 0.4 nM for the first, 0.2 nM for the second.

Compared with HSDAVFTDNYTRLRKQMAQKKYLNSIKNKR [R3P108], HSDAVFTDNYTRLRKQMAAKKYLNSIKNFR [R3P137] is 1000-fold lower in “R3 EC50” value: 300 nM for the first, 0.3 nM for the second.

Compared with HSDAVFTDNYTRLRKQMAAKKYLNSIKNNR [R3P143], HSDAVFTDNYTRLRKQMAAKKYLNSIKNWR [R3P150] is 4-fold higher in “R3 EC50” value: 0.2 nM for the first, 0.8 nM for the second.

Going from HSDAVFTDNYTRLRKQMAFKKYLNSIKNKR [R3P99] to HSDAVFTDNYTKLRKQLAAKKYLNDILNGGT [R3P11], the “R3 Selectivity” value falls from 40 ratio to 3 ratio.

Compared with HSDAVFTDNYTRLRKQLAAKKYLNDIKKGGT [R3P12], HSDAVFTDNYTRLRKQMAAKKYLNSIKNTR [R3P148] is lower in “R3 Selectivity” value: over 200 ratio for the first, 100 ratio for the second.

Going from HSDAVFTDNYTRLRKQMAAKKYLNSIWNKR [R3P131] to HSDAVFTDNYTRLRKQMAAKKYLNSIKNKE [R3P155], the “R3 Selectivity” value rises from 70 ratio to 100 ratio.

First: HSDAVFTDNYTRLRKQMAAKKYLNSIKNQR [R3P145]
Second: HSDAVFTDNYTRLRKQMAKKKYLNSIKNKR [R3P103]
The “R3 Selectivity” value of the first is higher: 100 ratio for the first, 8 ratio for the second.

Going from HSDAVFTDNYTRLRKQMAHKKYLNSIKNKR [R3P101] to HSDAVFTDNYTRLRKQMAAKKYLNSIGNKR [R3P120], the “R3 Selectivity” value falls from 400 ratio to 50 ratio.

Going from HSDAVFTDNYTRLRKQMASKKYLNSIKNKR [R3P110] to HSDAVFTDNYTRLRKQMAAKKYLNSITNKR [R3P129], the “R3 Selectivity” value falls from 200 ratio to 50 ratio.

Compared with HSDAVFTDNYTRLRKQMAAKKYLNSIKNKD [R3P153], HSDAVFTDNYTRLRKQMAAKKYLNSIKNIR [R3P140] is lower in “R3 Selectivity” value: 200 ratio for the first, 50 ratio for the second.

First: HSDAVFTDNYTRLRKQMAYKKYLNSIKNKR [R3P114]
Second: HSDAVFTDNYTRLRKQMAIKKYLNSIKNKR [R3P102]
The “R3 Selectivity” value of the first is higher: 10 ratio for the first, 5 ratio for the second.

Compared with HSDAVFTDNYTRLRKQMALKKYLNSIKNKR [R3P104], HSDAVFTDNYTRLRKQMAPKKYLNSIKNKR [R3P107] is lower in “R3 Selectivity” value: 500 ratio for the first, 5 ratio for the second.

Going from HSDAVFTDNYTRLRKQMARKKYLNSIKNKR [R3P109] to HSDAVFTDNYTRLRKQMAVKKYLNDLKKGGT [R3P14], the “R3 Selectivity” value falls from 100 ratio to 3 ratio.

HSDAVFTDNYTRLRKQMAGKKYLNSIKNKR [R3P100] and HSDAVFTDNYTRLRKQMAAKKYLNSIPNKR [R3P125] are the same in “R3 Selectivity” value: 30 ratio for the first, 30 ratio for the second.

First: HSDAVFTDNYTRLRKQMAAKKYLNSISNKR [R3P128]
Second: HSDAVFTENYTKLRKQLAAKKYLNDLKKGGTSWCEPGWCR [R3P19]
The “R3 Selectivity” value of the first is higher: 200 ratio for the first, 30 ratio for the second.

First: HSDAVFTDNYTRLRKQMAAKKYLNSIQNKR [R3P126]
Second: HSDAVFTDNYTRLRKQMAAKKYLNSIKNPR [R3P144]
The “R3 Selectivity” value of the first is higher: 200 ratio for the first, 100 ratio for the second.

Going from HSDAVFTDNYTRLRKQMAAKKYLNSIFNKR [R3P119] to HSDAVFTDNYTRLRKQMAAKKYLNSINNKR [R3P124], the “R3 Selectivity” value falls from 30 ratio to 15 ratio.

Compared with HSDAVFTDNYTRLRKQMAAKKYLNSIVNKR [R3P130], HSDAVFTDNYTRLRKQMAAKKYLNSICNKR [R3P116] is lower in “R3 Selectivity” value: 40 ratio for the first, 20 ratio for the second.

HSDAVFTDNYTRLRKQMAAKKYLNSIANKR [R3P115] and HSDAVFTDNYTRLRKQMAAKKYLNSIKNHR [R3P139] are the same in “R3 Selectivity” value: 50 ratio for the first, 50 ratio for the second.

Going from HSDAVFTDNYTRLRKQMAAKKYLNSIKNVR [R3P149] to HSDAVFTDNYTRLRKQMAAKKYLNSIKNER [R3P136], the “R3 Selectivity” value falls from 80 ratio to 70 ratio.

First: HSDAVFTDNYTRLRKQLAAKKYLNDIKK-NH2 [R3P13]
Second: HSDAVFTDNYTRLRKQMAAKKYLNSIKNRR [R3P146]
The “R3 Selectivity” value of the first is lower: 33 ratio for the first, 100 ratio for the second.

Compared with HSDAVFTDNYTRLRKQMAAKKYLNSIHNKR [R3P121], HSDAVFTDNYTRLRKQMAWKKYLNSIKNKR [R3P113] is lower in “R3 Selectivity” value: 50 ratio for the first, 10 ratio for the second.

Compared with HSDAVFTDNYTRLRKQMAAKKYLNSIKNLR [R3P141], HSDAVFTDNYTRLRKQMAAKKYLNSIENKR [R3P118] is lower in “R3 Selectivity” value: 100 ratio for the first, 30 ratio for the second.

First: HSDAVFTDNYTRLRKQMAAKKYLNSIRNKR [R3P127]
Second: HSDAVFTDNYTRLRKQMAAKKYLNSIKNCR [R3P134]
The “R3 Selectivity” value of the first is higher: 600 ratio for the first, 100 ratio for the second.

First: HSDAVFTDNYTRLRKQMAAKKYLNSIKNSR [R3P147]
Second: HSDAVFTDNYTRLRKQMAQKKYLNSIKNKR [R3P108]
The “R3 Selectivity” value of the first is higher: 500 ratio for the first, 3 ratio for the second.

Compared with HSDAVFTDNYTRLRKQMAAKKYLNSIKNFR [R3P137], HSDAVFTDNYTRLRKQMAAKKYLNSIKNNR [R3P143] is lower in “R3 Selectivity” value: 100 ratio for the first, 30 ratio for the second.

Compared with HSDAVFTDNYTRLRKQMAAKKYLNSIKNMR [R3P142], HSDAVFTDNYTRLRKQMAAKKYLNSIKNWR [R3P150] is higher in “R3 Selectivity” value: 30 ratio for the first, 50 ratio for the second.

— patent EP1192182B1, “PITUITARY ADENYLATE CYCLASE ACTIVATING PEPTIDE (PACAP) RECEPTOR 3 (R3) AGONISTS AND THEIR PHARMACOLOGICAL METHODS OF USE” (priority 1999, dated 2001)
